Numbering of substitutions follows the chain as printed. One block for each binder: values may come before it.
Biological target: human EGFR, C-terminal eGFP-tagged, on CHO-K1 cells (human, UniProt P00533 25-1210)
Assay: cell-based or functional assay

B1: GOMP001_bsAb_013 (bispecific antibody, human IgG1, kappa, L234A L235A)
heavy 1: QVQLVQSGAEVKKPGASVKVSCKASGYTFTSHWMHWVRKAPGQGLEWIGEFNPSNGRTNYNEEFKSKATMTVDTSTNTAYMELSSLRSEDTAVYYCASRDYDYDGRYFDYWGQGTLVTVSSASTKGPSVFPLAPSSKSTSGGTAALGCLVADYFPEPVTVSWNSGALTSGVHTFPAVLQSSGLYSLSSVVTVPSSSLGTQTYICNVNHKPSNTKVDEKVEPKSCDKTHTCPPCPAPEAAGGPSVFLFPPKPKDTLMISRTPEVTCVVVDVSHEDPEVKFNWYVDGVEVHNAKTKPREEQYNSTYRVVSVLTVLHQDWLNGKEYKCKVSNKALPAPIEKTISKAKGQPREPQVYTLPPSREEMTDNQVSLTCLVKGFYPSDIAVEWESNGQPENNYKTTPPVLMSDGSFFLASKLTVDKSRWQQGNVFSCSVMHEALHNHYTQKSLSLSPG
light 1: RIQMTQSPSSLSASVGDRVTITCSASSSVTYMYWYQDKPGKAPKLLIYDTSNLASGVPSRFSGSGSGTDYTFTISSLQPEDIATYYCQQWSSHIFTFGQGTKVEIKRTVAAPSVFIFPPSDKQLKSGTARVVCLLNNFYPREAKVQWKVDNALQSGNSQESVTEQDSKDSTYSLSSTLTLSKADYEKHKVYACEVTHQGLSSPVTKSFNRGEC
heavy 2: QVQLVQSGAEVKKPGASVKVSCKASGYTFTSYDINWVRYATGQGLEWMGWMNPKSGKTGYAQKFQGRITMTRNTPISTVYMDLSSLRSEDTAVYYCAREGHYDFWTGYYSFDYWGRGTLVTVSSASTKGPSVFPLAPSSKSTSGGTAALGCLVKDYFPEPVTVSWNSGALTSGVHTFPAVLQSSGLYSLSSVVTVPSSSLGTQTYICNVNHKPSNTKVDKKVEPKSCDKTHTCPPCPAPEAAGGPSVFLFPPKPKDTLMISRTPEVTCVVVDVSHEDPEVKFNWYVDGVEVHNAKTKPREEQYNSTYRVVSVLTVLHQDWLNGKEYKCKVSNKALPAPIEKTISKAKGQPRRPRVYTLPPSREEMTKNQVSLVCLVKGFYPSDIAVEWESNGQPENNYKTTPPVLDSDGSFFLYSVLTVDKSRWQQGNVFSCSVMHEALHNHYTQKSLSLSPG
light 2: DIQMTQSPSSLSASVGDRVTITCRASQGIRNDLGWYQRTPGDAPKRLIYAASSLQSGVPSRFSGSGSGTEFTLTISSLQPEDFATYYCLQHYSYPYTFGQGTKLEIKRTVAAPSVFIFPPSDEQLKSGTASVVCLLNNFYPREAKVQWKVDNALQSGNSQESVTEQDSKDSTYSLSSTLTLSKADYEKHKVYACEVTHQGLSSPVTKSFNRGEC
EC50 CHO-K1 EGFR Low (nM); T cell activation bioassay, luciferase: 1.31 nM
EC50 CHO-K1 EGFR Med (nM); T cell activation bioassay, luciferase: 0.239 nM

B4: GOMP001_bsAb_017 (bispecific antibody, human IgG1, kappa, L234A L235A)
heavy 1: B1 heavy 1
light 1: B1 light 1
heavy 2: EVQLVESGGDLVQPGRSLRLSCAASGFTFDDCVIHWVRYAPGKGLEWVSGITWNSGRIGYADRVKGRFTISRDNAKNSLYLQMNSLRVEDTALYYCAKEGNYDFWSTYYRGYFDLWGRGTLVTVSSASTKGPSVFPLAPSSKSTSGGTAALGCLVKDYFPEPVTVSWNSGALTSGVHTFPAVLQSSGLYSLSSVVTVPSSSLGTQTYICNVNHKPSNTKVDKKVEPKSCDKTHTCPPCPAPEAAGGPSVFLFPPKPKDTLMISRTPEVTCVVVDVSHEDPEVKFNWYVDGVEVHNAKTKPREEQYNSTYRVVSVLTVLHQDWLNGKEYKCKVSNKALPAPIEKTISKAKGQPRRPRVYTLPPSREEMTKNQVSLVCLVKGFYPSDIAVEWESNGQPENNYKTTPPVLDSDGSFFLYSVLTVDKSRWQQGNVFSCSVMHEALHNHYTQKSLSLSPG
light 2: B1 light 2 with T39K, S56G, S60L, Y92N
EC50 CHO-K1 EGFR Low (nM); T cell activation bioassay, luciferase: 0.945 nM
EC50 CHO-K1 EGFR Med (nM); T cell activation bioassay, luciferase: 0.102 nM

B5: GOMP001_bsAb_014 (bispecific antibody, human IgG1, kappa, L234A L235A)
heavy 1: B1 heavy 2
light 1: B1 light 2
heavy 2: QVQLVQSGAEVKKPGASVKVSCKASGYTFTSHWMHWVRYAPGQGLEWIGEFNPSNGRTNYNEKFKSKATMTVDTSTNTAYMELSSLRSEDTAVYYCASRDYDYDGRYFDYWGRGTLVTVSSASTKGPSVFPLAPSSKSTSGGTAALGCLVKDYFPEPVTVSWNSGALTSGVHTFPAVLQSSGLYSLSSVVTVPSSSLGTQTYICNVNHKPSNTKVDKKVEPKSCDKTHTCPPCPAPEAAGGPSVFLFPPKPKDTLMISRTPEVTCVVVDVSHEDPEVKFNWYVDGVEVHNAKTKPREEQYNSTYRVVSVLTVLHQDWLNGKEYKCKVSNKALPAPIEKTISKAKGQPRRPRVYTLPPSREEMTKNQVSLVCLVKGFYPSDIAVEWESNGQPENNYKTTPPVLDSDGSFFLYSVLTVDKSRWQQGNVFSCSVMHEALHNHYTQKSLSLSPG
light 2: B1 light 1 with R1D, D37R, K41D, K122E, R130S
EC50 CHO-K1 EGFR Low (nM); T cell activation bioassay, luciferase: 0.238 nM
EC50 CHO-K1 EGFR Med (nM); T cell activation bioassay, luciferase: 0.0722 nM

Results, then the binder that gave them:

EC50 CHO-K1 EGFR Low (nM); T cell activation bioassay, luciferase: 0.515 nM
EC50 CHO-K1 EGFR Med (nM); T cell activation bioassay, luciferase: 0.0267 nM
B2: GOMP001_bsAb_015 (bispecific antibody, human IgG1, kappa, L234A L235A)
heavy 1: B1 heavy 1
light 1: B1 light 1
heavy 2: QVQLVESGGGVVQPGRSLRLSCAASGFTFSGYGMHWVRYAPGKGLDWVAIIYYNGNNKYYADRVKGRFTISRDNSKNTLYLQMNSLRAEDTAVYYCARGGGYNWFDPWGRGTLVIVSSASTKGPSVFPLAPSSKSTSGGTAALGCLVKDYFPEPVTVSWNSGALTSGVHTFPAVLQSSGLYSLSSVVTVPSSSLGTQTYICNVNHKPSNTKVDKKVEPKSCDKTHTCPPCPAPEAAGGPSVFLFPPKPKDTLMISRTPEVTCVVVDVSHEDPEVKFNWYVDGVEVHNAKTKPREEQYNSTYRVVSVLTVLHQDWLNGKEYKCKVSNKALPAPIEKTISKAKGQPRRPRVYTLPPSREEMTKNQVSLVCLVKGFYPSDIAVEWESNGQPENNYKTTPPVLDSDGSFFLYSVLTVDKSRWQQGNVFSCSVMHEALHNHYTQKSLSLSPG
light 2: not shown

EC50 CHO-K1 EGFR Low (nM); T cell activation bioassay, luciferase: 0.0531 nM
EC50 CHO-K1 EGFR Med (nM); T cell activation bioassay, luciferase: 0.00316 nM
B3: GOMP001_bsAb_016 (bispecific antibody, human IgG1, kappa, L234A L235A)
heavy 1: B2 heavy 2
light 1: not shown
heavy 2: B5 heavy 2
light 2: B1 light 1 with R1D, D37R, K41D, K122E, R130S

EC50 CHO-K1 EGFR Low (nM); T cell activation bioassay, luciferase: 0.377 nM
EC50 CHO-K1 EGFR Med (nM); T cell activation bioassay, luciferase: 0.0442 nM
B6: GOMP001_bsAb_018 (bispecific antibody, human IgG1, kappa, L234A L235A)
heavy 1: B4 heavy 2
light 1: B1 light 2 with T39K, S56G, S60L, Y92N
heavy 2: B5 heavy 2
light 2: B1 light 1 with R1D, D37R, K41D, K122E, R130S

Source: patent publication US20230295310A1 (ABCELLERA BIOLOGICS, published 2023)
